Laboratory results reported in patent US20230038638A1, “COMPLEMENT FACTOR I-RELATED COMPOSITIONS AND METHODS” (published 2023).
Numbering of substitutions follows the chain as printed.

Columns and labels:
human C4b (human) [1] = target: T1, human C4b (human) (UniProt P0C0L5)
T1 sequence: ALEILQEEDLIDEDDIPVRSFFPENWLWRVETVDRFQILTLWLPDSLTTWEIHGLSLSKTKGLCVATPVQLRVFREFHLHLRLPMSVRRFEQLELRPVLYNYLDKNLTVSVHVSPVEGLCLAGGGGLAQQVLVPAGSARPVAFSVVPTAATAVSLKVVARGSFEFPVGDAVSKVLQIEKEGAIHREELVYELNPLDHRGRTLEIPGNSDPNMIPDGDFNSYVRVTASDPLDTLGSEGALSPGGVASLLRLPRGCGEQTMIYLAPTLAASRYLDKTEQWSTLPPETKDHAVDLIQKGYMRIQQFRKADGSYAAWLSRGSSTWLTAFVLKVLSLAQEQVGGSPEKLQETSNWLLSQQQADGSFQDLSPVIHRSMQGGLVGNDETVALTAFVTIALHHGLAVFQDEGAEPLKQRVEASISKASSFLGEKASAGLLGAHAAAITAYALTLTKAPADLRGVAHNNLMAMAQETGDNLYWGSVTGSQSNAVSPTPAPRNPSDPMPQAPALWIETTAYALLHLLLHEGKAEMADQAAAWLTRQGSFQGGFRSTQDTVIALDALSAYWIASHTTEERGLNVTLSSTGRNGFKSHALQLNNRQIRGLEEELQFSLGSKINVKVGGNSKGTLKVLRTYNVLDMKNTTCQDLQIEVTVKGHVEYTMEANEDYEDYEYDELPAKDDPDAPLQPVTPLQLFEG

[2] = target: soluble human C3b (human) (UniProt P01024)
human C4b (human) [3] = target: T2, human C4b (human) (UniProt P0C0L4)
T2 sequence: T1 sequence with T151A, G317D, L364P, S365C, I368L, H369D, S420N, A451V, R454L, A530S

With “CFI-HSA variant E457G; N531G; E461Q; R462K; F464Y (enzyme)” the C4b Screen Ref Fold (fold vs CFI-HSA wild type) (human C4b (human) [1]) was 5.97, the iC3b Screen Ref Fold (fold vs CFI-HSA wild type) [2] was 0.83 and the C4c EC50 (nM) (human C4b (human) [3]) was 37.9 nM.

Substance “CFI-HSA variant E457G; N531G; P535G (enzyme)” has a C4b Screen Ref Fold (fold of CFI-HSA wild type) (human C4b (human) [1]) of 5.48, an iC3b Screen Ref Fold (fold of CFI-HSA wild type) [2] of 1.27 and a C4c EC50 (human C4b (human) [3]) of 54 nM.

“CFI-HSA variant E457G; N531G; P535G; D425K (enzyme)” gave a C4b Screen Ref Fold (fold of CFI-HSA wild type) (human C4b (human) [1]) of 5.2, an iC3b Screen Ref Fold (fold of CFI-HSA wild type) [2] of 1.3 and a C4c EC50 (human C4b (human) [3]) of 39.4 nM.

“CFI-HSA variant E457G; N531G; P535G; N422K (enzyme)” showed a C4b Screen Ref Fold (fold of CFI-HSA wild type) (human C4b (human) [1]) of 4.46, an iC3b Screen Ref Fold (fold of CFI-HSA wild type) [2] of 1.87 and a C4c EC50 (human C4b (human) [3]) of 51.6 nM.

“CFI-HSA variant E457G; P535G; K534Q (enzyme)” showed a C4b Screen Ref Fold (fold of CFI-HSA wild type) (human C4b (human) [1]) of 3.85, an iC3b Screen Ref Fold (fold of CFI-HSA wild type) [2] of 0.82 and a C4c EC50 (human C4b (human) [3]) of 154 nM.

“CFI-HSA variant E457G; P535G; P558S (enzyme)” gave a C4b Screen Ref Fold (fold of CFI-HSA wild type) (human C4b (human) [1]) of 3.18, an iC3b Screen Ref Fold (fold of CFI-HSA wild type) [2] of 0.81 and a C4c EC50 (human C4b (human) [3]) of 186 nM.

Work on CFI-HSA variant E457G; P558S (enzyme) yielded a C4b Screen Ref Fold (fold of CFI-HSA wild type) (human C4b (human) [1]) of 4.98, an iC3b Screen Ref Fold (fold of CFI-HSA wild type) [2] of 1.04 and a C4c EC50 (human C4b (human) [3]) of 65.9 nM.

Work on CFI-HSA variant E487A (enzyme) yielded a C4b Screen Ref Fold (fold of CFI-HSA wild type) (human C4b (human) [1]) of 1.47, an iC3b Screen Ref Fold (fold of CFI-HSA wild type) [2] of 1.38 and a C4c EC50 (human C4b (human) [3]) of 104 nM.

Work on CFI-HSA variant E487K (enzyme) yielded a C4b Screen Ref Fold (fold of CFI-HSA wild type) (human C4b (human) [1]) of 1.11, an iC3b Screen Ref Fold (fold of CFI-HSA wild type) [2] of 1.35 and a C4c EC50 (human C4b (human) [3]) of 119 nM.

With “CFI-HSA variant E530D-N531G; G533A-K534Q-P535K-E536N (enzyme)” the C4b Screen Ref Fold (fold vs CFI-HSA wild type) (human C4b (human) [1]) was 1.4, the iC3b Screen Ref Fold (fold vs CFI-HSA wild type) [2] was 1.63 and the C4c EC50 (nM) (human C4b (human) [3]) was 470 nM.

CFI-HSA variant F464G (enzyme) was tested, and the C4b Screen Ref Fold (fold of CFI-HSA wild type) (human C4b (human) [1]) was 0.24, the iC3b Screen Ref Fold (fold of CFI-HSA wild type) [2] was 0.01 and the C4c EC50 (human C4b (human) [3]) was > 1000 nM.

CFI-HSA variant K488E (enzyme) was tested, and the C4b Screen Ref Fold (fold of CFI-HSA wild type) (human C4b (human) [1]) was 0.78, the iC3b Screen Ref Fold (fold of CFI-HSA wild type) [2] was 1.07 and the C4c EC50 (human C4b (human) [3]) was > 1000 nM.

In the case of “CFI-HSA variant N531G; D425R; E416A (enzyme)”, the C4b Screen Ref Fold (fold of CFI-HSA wild type) (human C4b (human) [1]) is reported as 2.64, the iC3b Screen Ref Fold (fold of CFI-HSA wild type) [2] is reported as 3.03 and the C4c EC50 (nM) (human C4b (human) [3]) is reported as 81.4 nM.

For “CFI-HSA variant N531G; E457G; E461Q; F464Y (enzyme)”, the C4b Screen Ref Fold (fold vs CFI-HSA wild type) (human C4b (human) [1]) was 6.8, the iC3b Screen Ref Fold (fold vs CFI-HSA wild type) [2] was 0.27 and the C4c EC50 (nM) (human C4b (human) [3]) was 44.1 nM.

With CFI-HSA variant N531G; K534Q (enzyme) the C4b Screen Ref Fold (fold of CFI-HSA wild type) (human C4b (human) [1]) was 5.23, the iC3b Screen Ref Fold (fold of CFI-HSA wild type) [2] was 1.39 and the C4c EC50 (human C4b (human) [3]) was 43.5 nM.

With CFI-HSA variant N531G; P535G (enzyme) the C4b Screen Ref Fold (fold of CFI-HSA wild type) (human C4b (human) [1]) was 4.19, the iC3b Screen Ref Fold (fold of CFI-HSA wild type) [2] was 1.28 and the C4c EC50 (human C4b (human) [3]) was 126 nM.

“CFI-HSA variant N531G; P535G; D425K (enzyme)” gave a C4b Screen Ref Fold (fold of CFI-HSA wild type) (human C4b (human) [1]) of 4.53, an iC3b Screen Ref Fold (fold of CFI-HSA wild type) [2] of 1.35 and a C4c EC50 (human C4b (human) [3]) of 78.9 nM.

“CFI-HSA variant N531G; P535G; K534Q (enzyme)” gave a C4b Screen Ref Fold (fold of CFI-HSA wild type) (human C4b (human) [1]) of 4.47, an iC3b Screen Ref Fold (fold of CFI-HSA wild type) [2] of 0.93 and a C4c EC50 (human C4b (human) [3]) of 118 nM.

“CFI-HSA variant N531G; P535G; P558S (enzyme)” was tested, and the C4b Screen Ref Fold (fold of CFI-HSA wild type) (human C4b (human) [1]) was 3.82, the iC3b Screen Ref Fold (fold of CFI-HSA wild type) [2] was 0.95 and the C4c EC50 (human C4b (human) [3]) was 136 nM.

Substance CFI-HSA variant N531G; P558S (enzyme) has a C4b Screen Ref Fold (fold of CFI-HSA wild type) (human C4b (human) [1]) of 5.28, an iC3b Screen Ref Fold (fold of CFI-HSA wild type) [2] of 1.35 and a C4c EC50 (human C4b (human) [3]) of 63.2 nM.

CFI-HSA variant R321A (enzyme) showed a C4b Screen Ref Fold (fold vs CFI-HSA wild type) (human C4b (human) [1]) of 0.22, an iC3b Screen Ref Fold (fold vs CFI-HSA wild type) [2] of 0.55 and a C4c EC50 (nM) (human C4b (human) [3]) of 897 nM.

With CFI-HSA variant S552G; P558S (enzyme) the C4b Screen Ref Fold (fold of CFI-HSA wild type) (human C4b (human) [1]) was 1.96, the iC3b Screen Ref Fold (fold of CFI-HSA wild type) [2] was 2.1 and the C4c EC50 (human C4b (human) [3]) was 375 nM.
